# In PMC11696221 (Nature Communications, 2025):
# T1: pS KaiC (KaiC-EA; S431E, T432A) (cyanobacteria, UniProt Q79PF4 1-519, S431E | T432A)
# T1 sequence: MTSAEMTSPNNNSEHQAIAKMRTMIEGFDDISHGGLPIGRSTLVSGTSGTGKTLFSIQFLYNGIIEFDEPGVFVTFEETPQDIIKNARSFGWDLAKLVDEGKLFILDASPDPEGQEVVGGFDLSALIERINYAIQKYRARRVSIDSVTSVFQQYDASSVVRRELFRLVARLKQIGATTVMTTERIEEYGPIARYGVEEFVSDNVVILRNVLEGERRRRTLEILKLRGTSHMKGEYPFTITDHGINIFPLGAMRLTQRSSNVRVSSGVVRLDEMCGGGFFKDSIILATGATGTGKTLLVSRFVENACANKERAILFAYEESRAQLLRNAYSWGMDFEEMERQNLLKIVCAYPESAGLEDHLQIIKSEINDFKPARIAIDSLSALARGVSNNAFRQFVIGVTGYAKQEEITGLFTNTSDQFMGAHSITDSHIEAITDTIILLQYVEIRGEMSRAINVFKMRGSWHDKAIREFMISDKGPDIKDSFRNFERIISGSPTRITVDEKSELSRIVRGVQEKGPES
# T2: wild-type KaiC with an N-terminal FLAG epitope (cyanobacteria, UniProt Q79PF4 1-519)
# T2 sequence: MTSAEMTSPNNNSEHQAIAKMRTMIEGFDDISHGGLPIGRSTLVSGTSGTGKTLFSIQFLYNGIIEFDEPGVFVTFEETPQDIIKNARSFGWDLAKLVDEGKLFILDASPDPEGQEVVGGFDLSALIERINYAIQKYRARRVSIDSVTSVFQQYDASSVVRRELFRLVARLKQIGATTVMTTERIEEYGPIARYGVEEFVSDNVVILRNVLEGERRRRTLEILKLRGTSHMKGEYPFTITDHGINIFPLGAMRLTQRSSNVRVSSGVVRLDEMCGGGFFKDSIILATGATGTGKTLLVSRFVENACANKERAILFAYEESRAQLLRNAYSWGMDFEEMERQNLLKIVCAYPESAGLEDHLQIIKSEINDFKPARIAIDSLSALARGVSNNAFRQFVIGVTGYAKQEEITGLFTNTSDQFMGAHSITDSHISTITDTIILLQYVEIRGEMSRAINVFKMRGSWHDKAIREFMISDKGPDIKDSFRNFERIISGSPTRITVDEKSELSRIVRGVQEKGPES
# T3: KaiC, wild type (no FLAG epitope) (cyanobacteria, UniProt Q79PF4 1-519)
# T3 sequence: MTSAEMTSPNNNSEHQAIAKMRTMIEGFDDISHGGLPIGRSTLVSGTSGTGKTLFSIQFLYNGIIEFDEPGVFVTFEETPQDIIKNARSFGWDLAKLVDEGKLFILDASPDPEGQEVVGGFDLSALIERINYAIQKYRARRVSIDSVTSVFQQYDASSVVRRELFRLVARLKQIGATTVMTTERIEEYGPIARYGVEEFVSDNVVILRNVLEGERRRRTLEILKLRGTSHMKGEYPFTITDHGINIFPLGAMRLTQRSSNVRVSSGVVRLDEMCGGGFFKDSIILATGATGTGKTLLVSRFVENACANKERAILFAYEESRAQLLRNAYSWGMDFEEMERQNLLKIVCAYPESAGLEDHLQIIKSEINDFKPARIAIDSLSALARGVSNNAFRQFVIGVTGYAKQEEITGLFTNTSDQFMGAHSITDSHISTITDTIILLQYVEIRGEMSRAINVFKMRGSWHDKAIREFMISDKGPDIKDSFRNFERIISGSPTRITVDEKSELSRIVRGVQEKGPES
# Legend:
# [1] = target: T1, pS KaiC (KaiC-EA; S431E, T432A); experiment: pull-down
# [2] = target: T2, wild-type KaiC with an N-terminal FLAG …; experiment: pull-down
# [3] = target: T3, KaiC, wild type (no FLAG epitope); experiment: fluorescence polarisation
# [4] = target: T2, wild-type KaiC with an N-terminal FLAG …; experiment: fluorescence polarisation
Binder,binding result [1],binding result [2],binding result [3],binding result [4]
"biotinylated KaiB (natural protein, biotin (amine-reactive EZ-Link-Sulfo-NHS-LC-Biotin, 50 x molar excess; sites not determined)) MSPRKTYILKLYVAGNTPNSVRALKTLKNILEVEFQGVYALKVIDVLKNPQLAEEDKILATPTLAKVLPLPVRRIIGDLSDREKVLIGLDLLYGELQDSDDF",binds,binds,,
"FITC-labeled KaiB K25C (natural protein, FITC label) MSPRKTYILKLYVAGNTPNSVRALCTLKNILEVEFQGVYALKVIDVLKNPQLAEEDKILATPTLAKVLPLPVRRIIGDLSDREKVLIGLDLLYGELQDSDDF",,,binds,binds
